Data on two proteins can be found in paper PMC3880548 (Biochemistry, 2012).

The series deals with the molecule itself. Put plainly: SEC.

Residue numbers refer to the chain shown, from its start. Names and notes keep the numbering of the source.

B1: Shewanella oneidensis cytochrome c peroxidase, wild type (enzyme)
chain: AEPIEVITPAKITEPEKVELGKMLFFEPRLSKSGFISCNSCHNLSTGGVDALPTSIGHHWQEGPINSPTVLNADFMLAQFWDGRASNLKEQAAGPIANPKEMGFTHELATETIASMPAYRARFAKVYGDEKVDIDRLTDAIAAFEKTLVTPNSPFDQYLLGKQDAISGDAKAGYQLFKDKGCVSCHNGPAVGGTMFMKMGLIKPFHTNNPAEGRKGVTGKDADKFVFKVPTLRNIELTYPYFHDGSVWTLEEAVNTMADIQLGQKLTEKETKEMVAFLNSLTGEQPQISLPILPPSNKETPRPVPFATGAK
Broadly, the stoichiometry N is the number of molecules, sites or subunits per partner or assembly. In the case of B1, the “stoichiometry N” value was determined as 2.

B2: Shewanella oneidensis cytochrome c peroxidase E321K charge reversal mutant (enzyme)
chain: B1 chain with E299K
B2: the “stoichiometry N” value was 2.
